These results are taken from publication PMC10658506 (2023).

B1: yeast-displayed wild-type human IL-11 [human] / soluble human IL-11 receptor extracellular domain, his-tagged [human] (parent complex)
chain 1: PGPPPGPPRVSPDPRAELDSTVLLTRSLLADTRQLAAQLRDKFPADGDHNLDSLPTLAMSAGALGALQLPGVLTRLRADLLSYLRHVQWLRRAGGSSLKTLEPELGTLQARLDRLLRRLQLLMSRLALPQPPPDPPAPPLAPPSSAWGGIRAAHAILGGLHLTLDWAVRGLLLLKTRL
chain 2: SPCPQAWGPPGVQYGQPGRSVKLCCPGVTAGDPVSWFRDGEPKLLQGPDSGLGHELVLAQADSTDEGTYICQTLDGALGGTVTLQLGYPPARPVVSCQAADYENFSCTWSPSQISGLPTRYLTSYRKKTVLGADSQRRSPSTGPWPCPQDPLGAARCVVHGAEFWSQYRINVTEVNPLGASTRLLDVSLQSILRPDPPQGLRVESVPGYPRRLRASWTYPASWPCQPHFLLKFRLQYRPAQHPAWSTVEPAGLEEVITDAVAGLPHAVRVSARDFLDAGTWSTWSPEAWGTPSTGTIPKEIPAWGQLHTQPEVEPQVDSPAPPRPSLQPHPRLLDHRDSVEQVAVLA

The variants in this experiment derive from B1. The experiment is described as follows: yeast display titration (flow cytometry); parent: 8.2 nM. For orientation: Flow cytometry measures light scatter and fluorescence of single cells or particles in a stream.
A word on the Kd: it is the concentration at which binding is half-saturated. In the case of chain 1 L57P, chain 1 G62R, the dissociation constant Kd was 0.42 nM.

In the case of chain 1 D19G, chain 1 T21I, chain 1 L57P, chain 1 G62R, chain 1 G71D, the Kd came out at 0.19 nM.

In the case of chain 1 T21I, chain 1 L57P, chain 1 G62R, the dissociation constant (Kd) was determined as 0.22 nM.
